Assay results reported in paper PMC10864366, “Aggresome formation promotes ASK1/JNK signaling activation and stemness maintenance in ovarian cancer” (Nature Communications, 2024).

Target: the molecule itself
Assay: gel-shift assay (SDS-PAGE of heated and unheated protein, Coomassie stain); purified OTUD1 WT and Δ105–164 protein; heated (100 °C) and unheated samples separated by SDS-PAGE

B1: purified OTUD1 protein (WT), pET28a-mEGFP-OTUD1 (natural protein, UniProt Q5VV17 1-481, looked up)
chain: MQLYSSVCTHYPAGAPGPTAAAPAPPAAATPFKVSLQPPGAAGAAPEPETGECQPAAAAEHREAAAVPAAKMPAFSSCFEVVSGAAAPASAAAGPPGASCKPPLPPHYTSTAQITVRALGADRLLLHGPDPVPGAAGSAAAPRGRCLLLAPAPAAPVPPRRGSSAWLLEELLRPDCPEPAGLDATREGPDRNFRLSEHRQALAAAKHRGPAATPGSPDPGPGPWGEEHLAERGPRGWERGGDRCDAPGGDAARRPDPEAEAPPAGSIEAAPSSAAEPVIVSRSDPRDEKLALYLAEVEKQDKYLRQRNKYRFHIIPDGNCLYRAVSKTVYGDQSLHRELREQTVHYIADHLDHFSPLIEGDVGEFIIAAAQDGAWAGYPELLAMGQMLNVNIHLTTGGRLESPTVSTMIHYLGPEDSLRPSIWLSWLSNGHYDAVFDHSYPNPEYDNWCKQTQVQRKRDEELAKSMAISLSKMYIEQNACS
notes: OTUD1, wild type; also called purified native WT OTUD1 protein; source: pET28a-mEGFP-OTUD1 construct, purified
binding result: binds
